Legend:
[1] = molecular target: T1, human CEA protein on the cell surface (human, UniProt P06731 35-685); experiment: FACS, MKN45 cells
T1 construct: whole, on cells; also called CEACAM-5; CD66e
T1 sequence (looked up): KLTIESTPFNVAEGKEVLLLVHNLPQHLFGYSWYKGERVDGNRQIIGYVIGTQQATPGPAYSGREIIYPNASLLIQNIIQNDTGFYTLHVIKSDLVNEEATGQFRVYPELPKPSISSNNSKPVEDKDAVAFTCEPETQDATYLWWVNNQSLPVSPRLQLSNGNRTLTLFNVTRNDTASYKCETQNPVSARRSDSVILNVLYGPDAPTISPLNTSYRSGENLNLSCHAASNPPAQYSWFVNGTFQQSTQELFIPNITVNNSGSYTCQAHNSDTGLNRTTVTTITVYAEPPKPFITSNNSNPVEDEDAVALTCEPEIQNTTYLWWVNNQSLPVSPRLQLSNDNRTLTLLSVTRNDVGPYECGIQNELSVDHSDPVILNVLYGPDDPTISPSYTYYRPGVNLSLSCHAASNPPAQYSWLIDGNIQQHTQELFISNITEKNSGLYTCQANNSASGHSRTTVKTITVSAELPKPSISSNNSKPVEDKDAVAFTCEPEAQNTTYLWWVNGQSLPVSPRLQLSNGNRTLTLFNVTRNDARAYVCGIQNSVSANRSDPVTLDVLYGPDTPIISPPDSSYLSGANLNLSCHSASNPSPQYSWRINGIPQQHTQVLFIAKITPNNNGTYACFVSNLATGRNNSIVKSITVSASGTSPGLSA
Experimental: (§1) In order to detect the binding of the antibody to the CEA protein on the cell surface, the binding activity of the antibody was determined by FACS using cells expressing CEA on the cell surface. Cells were harvested and centrifuged at 400 g at 4° C. for 5 min. Pre-cooled PBS containing FBS at final concentration 10% was added, and the mixture was centrifuged at 400 g at 4° C. for 5 min; the procedures were repeated twice. The cells were seeded into a 96-well plate at 10⁵ cells/well, and 100 μL of gradient diluted antibody solution was added to each well. The plate was incubated at 4° C. for 60 min and centrifuged, and the supernatant was removed. 250 μL of pre-cooled PBS containing FBS at final concentration 10% was added to each well to resuspend the cells, and the suspension was centrifuged at 400 g at 4° C. for 5 min, followed by the removal of the supernatant; the procedures were repeated twice. 50 μL of 1:200 diluted secondary antibody Alexa Fluor@488 goat anti-human IgG (H+L) (Lifetechologies, Cat #A11013) was added. […] 250 μL of pre-cooled PBS containing FBS at final concentration 10% was added to each cell to resuspend the cells, and the suspension was centrifuged at 400 g at 4° C. for 5 min; the procedures were repeated twice. 100 μL of pre-cooled PBS was added to each well to resuspend the cells. The plate was analyzed by a flow cytometer (BD, FACSverse) for fluorescence signal values.

[2] = molecular target: T2, monkey CEA expressed on CHO cell surface (cynomolgus monkey); experiment: FACS, cynoCEA-CHO cells
T2 construct: also called cynoCEA-CHO; monkey CEA proteins on the cell surface
T2 chain: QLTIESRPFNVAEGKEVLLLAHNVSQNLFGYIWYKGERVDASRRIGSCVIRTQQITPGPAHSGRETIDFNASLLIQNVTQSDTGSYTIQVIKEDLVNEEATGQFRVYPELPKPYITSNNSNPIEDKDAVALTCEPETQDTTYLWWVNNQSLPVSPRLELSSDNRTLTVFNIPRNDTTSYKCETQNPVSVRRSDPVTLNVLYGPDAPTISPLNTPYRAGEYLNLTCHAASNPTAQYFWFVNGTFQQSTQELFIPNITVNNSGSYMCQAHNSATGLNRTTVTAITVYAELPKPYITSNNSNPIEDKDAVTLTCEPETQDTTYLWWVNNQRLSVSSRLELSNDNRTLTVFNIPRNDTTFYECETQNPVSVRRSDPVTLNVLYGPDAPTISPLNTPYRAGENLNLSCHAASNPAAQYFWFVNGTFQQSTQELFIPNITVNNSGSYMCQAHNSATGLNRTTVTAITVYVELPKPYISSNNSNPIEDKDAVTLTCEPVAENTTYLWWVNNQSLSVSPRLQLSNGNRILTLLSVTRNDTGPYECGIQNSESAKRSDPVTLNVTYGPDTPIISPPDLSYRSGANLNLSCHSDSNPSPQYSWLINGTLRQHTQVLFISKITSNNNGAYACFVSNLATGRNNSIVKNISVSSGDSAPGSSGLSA
Experimental: as §1

| Binder | EC50 [1] | EC50 [2] |
| --- | --- | --- |
| Hu103-13 (antibody, human IgG1, lambda) heavy: not shown light: ELVLTQSPSASASLGASVKLTCTLSSQHSTYTIEWYQQQPEKPPRYVMELKKDGSHSTGDGIPDRFSGSSSGAERYLTISSLQSEDEADYICGVGNTIKEQFVYVFGGGTKLTVLGQPKANPTVTLFPPSSEELQANKATLVCLISDFYPGAVTVAWKADGSPVKAGVETTKPSKQSNNKYAASSYLSLTPEQWKSHRSYSCQVTHEGSTVEKTVAPTECS | 2.53 nM | 1.01 nM |
| Hu103-20 (antibody, human IgG1, lambda) heavy: not shown light: ELVVTQSPSASASLGASVKLTCTLSSQHSTYTIEWYQQQPEKGPRYVMELKKDGSHSTGDGIPDRFSGSSSGAERYLTISSLQSEDEADYYCGVGNTIKEQFVYVFGGGTKLTVLGQPKANPTVTLFPPSSEELQANKATLVCLISDFYPGAVTVAWKADGSPVKAGVETTKPSKQSNNKYAASSYLSLTPEQWKSHRSYSCQVTHEGSTVEKTVAPTECS | 2.19 nM | 0.98 nM |
| Hu103-6 (antibody, human IgG1, lambda) heavy: not shown light: ELVVTQSPSASASLGASVKLTCTLSSQHSTYTIEWYQQQPEKPPRYVMELKKDGSHSTGDGIPDRFSGSSSGAERYLTISSLQSEDEADYICGVGNTIKEQFVYVFGGGTKLTVLGQPKANPTVTLFPPSSEELQANKATLVCLISDFYPGAVTVAWKADGSPVKAGVETTKPSKQSNNKYAASSYLSLTPEQWKSHRSYSCQVTHEGSTVEKTVAPTECS | 1.27 nM | 1.56 nM |
| Hu103-21 (antibody, human IgG1, lambda) heavy: not shown light: ELVLTQSPSASASLGASVKLTCTLSSQHSTYTIEWYQQQPEKPPRYVMELKKDGSHSTGDGIPDRFSGSSSGAERYLTISSLQSEDEADYICGVGNTIKEQFVYVFGGGTKLTVLGQPKANPTVTLFPPSSEELQANKATLVCLISDFYPGAVTVAWKADGSPVKAGVETTKPSKQSNNKYAASSYLSLTPEQWKSHRSYSCQVTHEGSTVEKTVAPTECS | 1.34 nM | 1.17 nM |
| Hu103-5 (antibody, human IgG1, lambda) heavy: not shown light: ELVLTQSPSASASLGASVKLTCTLSSQHSTYTIEWYQQQPEKPPRYVMELKKDGSHSTGDGIPDRFSGSSSGAERYLTISSLQSEDEADYICGVGNTIKEQFVYVFGGGTKLTVLGQPKANPTVTLFPPSSEELQANKATLVCLISDFYPGAVTVAWKADGSPVKAGVETTKPSKQSNNKYAASSYLSLTPEQWKSHRSYSCQVTHEGSTVEKTVAPTECS | 2.38 nM | 1.47 nM |
| Hu103-9 (antibody, human IgG1, lambda) heavy: not shown light: ELVLTQSPSASASLGASVKLTCTLSSQHSTYTIEWHQQQPEKGPRYLMELKKDGSHSTGDGIPDRFSGSSSGAERYLTISSLQSEDEADYYCGVGNTIKEQFVYVFGGGTKLTVLGQPKANPTVTLFPPSSEELQANKATLVCLISDFYPGAVTVAWKADGSPVKAGVETTKPSKQSNNKYAASSYLSLTPEQWKSHRSYSCQVTHEGSTVEKTVAPTECS | 2.95 nM | 1.61 nM |
| Hu103-17 (antibody, human IgG1, lambda) heavy: not shown light: ELVLTQSPSASASLGASVKLTCTLSSQHSTYTIEWHQQQPEKGPRYLMELKKDGSHSTGDGIPDRFSGSSSGAERYLTISSLQSEDEADYYCGVGNTIKEQFVYVFGGGTKLTVLGQPKANPTVTLFPPSSEELQANKATLVCLISDFYPGAVTVAWKADGSPVKAGVETTKPSKQSNNKYAASSYLSLTPEQWKSHRSYSCQVTHEGSTVEKTVAPTECS | 2.92 nM | 1.52 nM |
| Hu103-18 (antibody, human IgG1, lambda) heavy: not shown light: ELVLTQSPSASASLGASVKLTCTLSSQHSTYTIEWYQQQPEKGPRYLMELKKDGSHSTGDGIPDRFSGSSSGAERYLTISSLQSEDEADYYCGVGNTIKEQFVYVFGGGTKLTVLGQPKANPTVTLFPPSSEELQANKATLVCLISDFYPGAVTVAWKADGSPVKAGVETTKPSKQSNNKYAASSYLSLTPEQWKSHRSYSCQVTHEGSTVEKTVAPTECS | 2.75 nM | 0.89 nM |
| Hu103-14 (antibody, human IgG1, lambda) heavy: not shown light: ELVVTQSPSASASLGASVKLTCTLSSQHSTYTIEWYQQQPEKPPRYVMELKKDGSHSTGDGIPDRFSGSSSGAERYLTISSLQSEDEADYICGVGNTIKEQFVYVFGGGTKLTVLGQPKANPTVTLFPPSSEELQANKATLVCLISDFYPGAVTVAWKADGSPVKAGVETTKPSKQSNNKYAASSYLSLTPEQWKSHRSYSCQVTHEGSTVEKTVAPTECS | 2.41 nM | 1.37 nM |
| Hu103-10 (antibody, human IgG1, lambda) heavy: not shown light: ELVLTQSPSASASLGASVKLTCTLSSQHSTYTIEWYQQQPEKGPRYLMELKKDGSHSTGDGIPDRFSGSSSGAERYLTISSLQSEDEADYYCGVGNTIKEQFVYVFGGGTKLTVLGQPKANPTVTLFPPSSEELQANKATLVCLISDFYPGAVTVAWKADGSPVKAGVETTKPSKQSNNKYAASSYLSLTPEQWKSHRSYSCQVTHEGSTVEKTVAPTECS | 2.23 nM | 1 nM |

The remaining binders from weak to strong by EC50 [1], led by results:

| EC50 [1] | EC50 [2] | Binder |
| --- | --- | --- |
| 2.62 nM | 1.32 nM | Hu103-4 (antibody, human IgG1, lambda) heavy: not shown light: ELVVTQSPSASASLGASVKLTCTLSSQHSTYTIEWYQQQPEKGPRYVMELKKDGSHSTGDGIPDRFSGSSSGAERYLTISSLQSEDEADYYCGVGNTIKEQFVYVFGGGTKLTVLGQPKANPTVTLFPPSSEELQANKATLVCLISDFYPGAVTVAWKADGSPVKAGVETTKPSKQSNNKYAASSYLSLTPEQWKSHRSYSCQVTHEGSTVEKTVAPTECS |
| 2.42 nM | 0.96 nM | Hu103-19 (antibody, human IgG1, lambda) heavy: not shown light: ELVLTQSPSASASLGASVKLTCTLSSQHSTYTIEWYQQQPEKGPRYVMELKKDGSHSTGDGIPDRFSGSSSGAERYLTISSLQSEDEADYYCGVGNTIKEQFVYVFGGGTKLTVLGQPKANPTVTLFPPSSEELQANKATLVCLISDFYPGAVTVAWKADGSPVKAGVETTKPSKQSNNKYAASSYLSLTPEQWKSHRSYSCQVTHEGSTVEKTVAPTECS |
| 2.38 nM | 1.08 nM | Hu103-12 (antibody, human IgG1, lambda) heavy: not shown light: ELVVTQSPSASASLGASVKLTCTLSSQHSTYTIEWYQQQPEKGPRYVMELKKDGSHSTGDGIPDRFSGSSSGAERYLTISSLQSEDEADYYCGVGNTIKEQFVYVFGGGTKLTVLGQPKANPTVTLFPPSSEELQANKATLVCLISDFYPGAVTVAWKADGSPVKAGVETTKPSKQSNNKYAASSYLSLTPEQWKSHRSYSCQVTHEGSTVEKTVAPTECS |
| 2.2 nM | 1.62 nM | Hu103-7 (antibody, human IgG1, lambda, V domains shown) VH: EVQLVQSGSELKKPGASVKVSCKASGYTFTTYGVIWVRQAPGQGLEWMGWINTYSGVPTYADDFKGRFVFSLDTSVSTAYLQISSLKAEDTAVYYCARKKTLTTVTPWFAYWGQGTLVTVSS VL: ELVVTQSPSASASLGASVKLTCTLSSQHSTYTIEWYQQQPEKPPRYVMELKKDGSHSTGDGIPDRFSGSSSGADRYLTISSLQSEDEADYICGVGNTIKEQFVYVFGGGTKLTVLG |
| 2.13 nM | 1.36 nM | Hu103-15 (antibody, human IgG1, lambda) heavy: not shown light: ELVVTQSPSASASLGASVKLTCTLSSQHSTYTIEWYQQQPEKPPRYVMELKKDGSHSTGDGIPDRFSGSSSGADRYLTISSLQSEDEADYICGVGNTIKEQFVYVFGGGTKLTVLGQPKANPTVTLFPPSSEELQANKATLVCLISDFYPGAVTVAWKADGSPVKAGVETTKPSKQSNNKYAASSYLSLTPEQWKSHRSYSCQVTHEGSTVEKTVAPTECS |
